Source: article PMC5517495, “Candidate SNP Markers of Familial and Sporadic Alzheimer's Diseases Are Predicted by a Significant Change in the Affinity of TATA-Binding Protein for Human Gene Promoters”

Target: TATA-binding protein (TBP) (human, UniProt P20226 1-339)
Test: stopped-flow fluorescence (FRET); 0.1 uM ODN, 0.1-1.0 uM TBP; EMSA: 20 mM HEPES-KOH pH 7.6, 5 mM MgCl2, 70 mM KCl, 1 mM EDTA, 100 ug/ml BSA, 0.01% NP-40 (printed 0.0.1%), 5% glycerol, 25 C; stopped-flow buffer not stated
Conditions: protein: recombinant; label: 5' TAMRA and 5' FAM; blunt

Sequence of TATA-binding protein (TBP) (P20226 whole entry): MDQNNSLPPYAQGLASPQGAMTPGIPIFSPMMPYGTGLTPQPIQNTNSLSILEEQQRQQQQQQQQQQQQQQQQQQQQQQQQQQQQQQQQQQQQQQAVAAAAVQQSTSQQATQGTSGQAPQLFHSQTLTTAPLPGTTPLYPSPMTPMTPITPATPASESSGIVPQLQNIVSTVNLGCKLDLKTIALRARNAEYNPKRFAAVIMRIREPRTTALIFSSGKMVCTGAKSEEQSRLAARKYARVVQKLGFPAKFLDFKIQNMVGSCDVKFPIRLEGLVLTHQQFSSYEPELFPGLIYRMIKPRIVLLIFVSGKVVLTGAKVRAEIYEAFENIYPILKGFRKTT

B1: TPI1 promoter rs1800202 ancestral allele (stopped-flow) (dsDNA)
DNA 1: CGCGGCGCTCTATATAAGTGGGCAGT
DNA 2: ACTGCCCACTTATATAGAGCGCCGCG
B1 was tested, and the Kd was 1 nM.

B2: TPI1 promoter rs1800202 minor allele (stopped-flow) (dsDNA)
DNA 1: CGCGGCGCTCTATAGAAGTGGGCAGT
DNA 2: ACTGCCCACTTCTATAGAGCGCCGCG
With B2 the Kd was 19 nM.
